In article doi:10.64898/2025.12.29.696898 one finds mean fluorescence intensity and mean ratio of fluorescence intensity (FI 588 nm/ FI 588 nm + FI 513 nm) data, which are given here for one substance.

For this test, the target named is GFP-EBP2 (human) (UniProt Q99848). Briefly: FRET or BRET.
Sequence of UniProt Q99848 (Q99848 whole entry): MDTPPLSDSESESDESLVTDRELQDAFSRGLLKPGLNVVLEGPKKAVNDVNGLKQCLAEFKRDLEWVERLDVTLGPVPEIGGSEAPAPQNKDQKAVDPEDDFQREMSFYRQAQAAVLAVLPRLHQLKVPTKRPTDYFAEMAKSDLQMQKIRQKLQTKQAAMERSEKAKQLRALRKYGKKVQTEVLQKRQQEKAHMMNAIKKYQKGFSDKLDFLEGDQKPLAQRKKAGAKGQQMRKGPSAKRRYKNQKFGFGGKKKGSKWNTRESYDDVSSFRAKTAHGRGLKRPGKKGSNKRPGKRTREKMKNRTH

For “EBNA-1-DsRed (from UniProt P03211 1-641) (natural protein)”, the mean fluorescence intensity at 588 nm resulting from FRET worked out at 167 and the mean ratio of fluorescence intensity (FI 588 nm/ FI 588 nm + FI 513 nm) came out at 0.4.
